Data taken from patent publication US20170313754A1 (PROTAGONIST THERAPEUTICS, published 2017).
Numbered stars: 1 amine (or outer) side, 2 acyl side, 3 side chain; on linkers, the order of the positions; unused ones are H or OH. Bridge positions count the residues as written; N and C are the ends. Square brackets hold non-standard residues; d marks the D form. Ends that are not written are not given here. * marks the point of attachment. Ida = iminodiacetic acid, O=C(CN(CC(=O)[*:3])[*:1])[*:2]; Dip = N[C@H](C(=O)O)C(c1ccccc1)c1ccccc1; β3hF = N[C@H](CC(=O)O)Cc1ccccc1; pGlu = O=C1CC[C@@H](C(=O)O)N1; β3hP = O=C(O)C[C@@H]1CCCN1; Isovaleryl = CC(C)CC(=O)*

T1: human ferroportin (SLC40A1) fused in frame with GFP, stably expressed in HEK293 cells (human, UniProt Q9NP59 1-571)
T1 sequence (looked up): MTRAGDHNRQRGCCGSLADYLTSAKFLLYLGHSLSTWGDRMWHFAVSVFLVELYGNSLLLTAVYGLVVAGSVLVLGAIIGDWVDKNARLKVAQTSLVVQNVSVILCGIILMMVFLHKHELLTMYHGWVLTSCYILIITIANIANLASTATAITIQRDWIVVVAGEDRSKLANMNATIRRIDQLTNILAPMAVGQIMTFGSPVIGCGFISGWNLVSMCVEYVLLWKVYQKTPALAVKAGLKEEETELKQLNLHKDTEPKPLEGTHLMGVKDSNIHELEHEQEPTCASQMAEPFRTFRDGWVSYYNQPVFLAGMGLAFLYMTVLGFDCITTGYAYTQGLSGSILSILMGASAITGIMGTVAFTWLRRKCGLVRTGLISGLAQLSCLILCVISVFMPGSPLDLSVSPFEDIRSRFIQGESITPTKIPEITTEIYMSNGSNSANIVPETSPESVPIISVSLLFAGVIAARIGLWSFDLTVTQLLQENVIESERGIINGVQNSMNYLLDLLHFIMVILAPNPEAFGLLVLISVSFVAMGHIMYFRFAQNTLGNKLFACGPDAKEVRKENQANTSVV


These binders were tested against T1, human ferroportin (SLC40A1) fused in … (assay: cell-based or functional assay).

Row | Binder | Potency EC50 (nM), ferroportin-GFP internalization/degradation | Potency: percent at the stated concentration, ferroportin-GFP internalization/degradation
1 | H-DTHAPCIIF-NH2 [Hy-DTHAPCIIF-NH2] | > 10000 nM | 
2 | H-DTHCPIAIF-NH2 [Hy-DTHCPIAIF-NH2] | > 10000 nM | 
3 | H-DTHFPCIIA-NH2 [Hy-DTHFPCIIA-NH2] | > 1000 nM | 
4 | H-DTHFPCIEF-NH2 [Hy-DTHFPCIEF-NH2, listing 1 of 2 here] | > 1000 nM | 
5 | H-DTHFPCIEK-NH2 [Hy-DTHFPCIEK-NH2] |  | 0 % at 1 µM
6 | H-DTHFPCAIF-NH2 [Hy-DTHFPCAIF-NH2, listing 1 of 2 here] | > 1000 nM | 
7 | H-DTHFPRRFGPRSKGWVC-NH2 [Hy-DTHFPRRFGPRSKGWVC-NH2] | > 1000 nM | 
8 | H-DTHFPCAIF-NH2 [Hy-DTHFPCAIF-NH2, listing 2 of 2 here] | > 1000 nM | 
9 | H-DTHFPCIF-NH2 [Hy-DTHFPCIF-NH2] |  | 52 % at 1 µM
10 | H-DTHFPCFIF-NH2 [Hy-DTHFPCFIF-NH2] | 1190 nM | 
11 | DTHFPCIKFKPHSKECK (N-terminal isovaleric acid; K(isoglu-Palm) at Lys 10; C-terminal amide) [Isovaleric acid-DTHFPCIKF-K(isoglu-Palm)-PHSKECK-NH2] | 6 nM | 
12 | H-DTAFPCIIF-NH2 [Hy-DTAFPCIIF-NH2] | 739 nM | 
13 | H-DTHFPCIEF-NH2 [Hy-DTHFPCIEF-NH2, listing 2 of 2 here] | > 1000 nM | 
14 | H-ETHFPCIIF-NH2 [Hy-ETHFPCIIF-NH2] |  | 77 % at 1 µM
15 | [Ida]THF[β3hP]CRR[β3hF]GPRSKGWVC-NH2 (disulfide 6-18 (inferred)) [[IDA]-THF-[bhPro]-CRR-[bhPhe]GPRSKGWVC-NH2] | > 1000 nM | 
16 | H-DTHFPCRIFGPRSRGWVCK-NH2 (disulfide 6-18 (inferred)) [Hy-DTHFPCRIFGPRSRGWVCK-NH2] | > 1000 nM | 
17 | H-DTHFPCLIF-NH2 [Hy-DTHFPCLIF-NH2] | > 10000 nM | 
18 | H-DTHFPCIKFF-NH2 [Hy-DTHFPCIKFF-NH2] |  | 64 % at 1 µM
19 | H-DTHFPCVIF-NH2 [Hy-DTHFPCVIF-NH2] |  | 81 % at 10 uM
20 | Isovaleryl-DTHFPCIIF-NH2 (SMILES CC[C@H](C)[C@H](NC(=O)[C@H](CS)NC(=O)[C@@H]1CCCN1C(=O)[C@H](Cc1ccccc1)NC(=O)[C@H](Cc1c[nH]cn1)NC(=O)[C@@H](NC(=O)[C@H](CC(=O)O)NC(=O)CC(C)C)[C@@H](C)O)C(=O)N[C@H](C(=O)N[C@@H](Cc1ccccc1)C(N)=O)[C@@H](C)CC) [Isovaleric acid-DTHFPCIIF-NH2] | 16 nM | 
21 | H-DTHFPCILK-NH2 [Hy-DTHFPCILK-NH2] |  | 55 % at 1 µM
22 | H-LTHFPCIIF-NH2 [Hy-LTHFPCIIF-NH2] |  | 64 % at 1 µM
23 | Isovaleryl-DTHFPCIKF-NH2 (SMILES CC[C@H](C)[C@H](NC(=O)[C@H](CS)NC(=O)[C@@H]1CCCN1C(=O)[C@H](Cc1ccccc1)NC(=O)[C@H](Cc1c[nH]cn1)NC(=O)[C@@H](NC(=O)[C@H](CC(=O)O)NC(=O)CC(C)C)[C@@H](C)O)C(=O)N[C@@H](CCCCN)C(=O)N[C@@H](Cc1ccccc1)C(N)=O) [Isovaleric acid-DTHFPCIKF-NH2] | 7 nM | 

Row | Binder | Potency EC50 (nM), ferroportin-GFP internalization/degradation | Potency: percent at the stated concentration, ferroportin-GFP internalization/degradation
24 | H-DTHFPCIVF-NH2 [Hy-DTHFPCIVF-NH2] |  | 75 % at 1 µM
25 | Isovaleryl-DTHFPCRRFGPRSKGWVCK-NH2 (disulfide 6-18 (inferred)) [Isovaleric acid-DTHFPCRRFGPRSKGWVCK-NH2] | > 1000 nM | 
26 | H-DTHF[dA]CIIF-NH2 (SMILES CC[C@H](C)[C@H](NC(=O)[C@H](CS)NC(=O)[C@@H](C)NC(=O)[C@H](Cc1ccccc1)NC(=O)[C@H](Cc1c[nH]cn1)NC(=O)[C@@H](NC(=O)[C@@H](N)CC(=O)O)[C@@H](C)O)C(=O)N[C@H](C(=O)N[C@@H](Cc1ccccc1)C(N)=O)[C@@H](C)CC) [Hy-DTHF-(D)-Ala-CIIF-NH2] | > 10000 nM | 
27 | H-DTKFPCIIF-NH2 [Hy-DTKFPCIIF-NH2] |  | 60 % at 1 µM
28 | H-DTHFPCEIF-NH2 [Hy-DTHFPCEIF-NH2] | > 1000 nM | 
29 | H-DTHFPCRIF-NH2 [Hy-DTHFPCRIF-NH2, listing 1 of 2 here] |  | 31 % at 10 uM
30 | [Ida]THF[β3hP]CIIF-NH2 [[Ida]-THF-[bhPro]-CIIF-NH2] | > 1000 nM | 
31 | [Ida]TH[Dip][β3hP]CRR[β3hF]-NH2 [[IDA]-TH-[Dpa]-[bhPro]CRR-[bhPhe]-NH2] | 206 nM | 
32 | H-DTHFPCQIF-NH2 [Hy-DTHFPCQIF-NH2] | > 1000 nM | 
33 | H-DTHFPCLF-NH2 [Hy-DTHFPCLF-NH2] |  | 39 % at 1 uM
34 | H-DTHFPCKIF-NH2 [Hy-DTHFPCKIF-NH2] |  | 9 % at 10 uM
35 | H-DTHFPCIFGPRSKGWVC-NH2 (disulfide 6-17 (inferred)) [Hy-DTHFPCIFGPRSKGWVC-NH2] | > 1000 nM | 
36 | [pGlu]THFPCRKF-NH2 (SMILES C[C@@H](O)[C@H](NC(=O)[C@@H]1CCC(=O)N1)C(=O)N[C@@H](Cc1c[nH]cn1)C(=O)N[C@@H](Cc1ccccc1)C(=O)N1CCC[C@H]1C(=O)N[C@@H](CS)C(=O)N[C@@H](CCCNC(=N)N)C(=O)N[C@@H](CCCCN)C(=O)N[C@@H](Cc1ccccc1)C(N)=O) [Hy-[pGlu]-THFPCRKF-NH2] | > 1000 nM | 
37 | H-DTHFACIIF-NH2 [Hy-DTHFACIIF-NH2] | > 1000 nM | 
38 | Isovaleryl-DTHFPCKIFGPRSKGWECK-NH2 (disulfide 6-18 (inferred)) [Isovaleric acid-DTHFPCKIFGPRSKGWECK-NH2] | 163 nM | 
39 | H-DTHFPCIIR-NH2 [Hy-DTHFPCIIR-NH2] |  | 62 % at 1 µM
40 | H-DTHFPCILF-NH2 [Hy-DTHFPCILF-NH2] |  | 89 % at 1 µM
41 | Isovaleryl-DTHFPCKIFGPRSKGWVCK-NH2 (disulfide 6-18 (inferred)) [Isovaleric acid-DTHFPCKIFGPRSKGWVCK-NH2] | 86 nM | 
42 | H-ATHFPCIIF-NH2 [Hy-ATHFPCIIF-NH2] | > 1000 nM | 
43 | H-DTHFPCRIF-NH2 [Hy-DTHFPCRIF-NH2, listing 2 of 2 here] | > 1000 nM | 
44 | H-DTHFPCRF-NH2 [Hy-DTHFPCRF-NH2] |  | 31 % at 10 uM
45 | Isovaleryl-DTHFPCIKKEPHSKECK-NH2 (disulfide 6-16 (inferred)) [Isovaleric acid-DTHFPCIKKEPHSKECK-NH2] | > 1000 nM | 
46 | H-DTHFPCIIK-NH2 [Hy-DTHFPCIIK-NH2] |  | 55 % at 1 µM
